Measurements reported in the supplement of paper PMC7125110.
± gives the standard error. For part of these data: This sample holds only a part of the variants without activity.

B1: glmS ribozyme (parent)
chain: AUAAAAGCGCCAGAACUACAGAAAUGUAGUUGACGAGGAGGAGGUUUAUCGAAUUUUCGGCGGAUGCCUCCAAA

Columns and labels:
Conditions in all cases: with glucosamine-6-phosphate
glucosamine-6-phosphate [1] = variants of: B1; experiment: kcat; higher = faster cleavage; RNA array
How it was run: (§1)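 Barcoded ribozyme variants, transcribed in situ by E. coli RNA polymerase on sequenced MiSeq chips, were followed via a hybridised Cy3 probe at 37 °C. Glucosamine-6-phosphate ranged from 40 μM to 10 mM in HEPES/KCl/Mg(OAc)2 buffer. kobs came from decay fits to per-tile medians, and kcat and KM from weighted Michaelis–Menten fits.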

glucosamine-6-phosphate [2] = variants of: B1; experiment: KM; higher = weaker cofactor use; RNA array
How it was run: as §1

glucosamine-6-phosphate [3] = variants of: B1; experiment: self-cleavage kobs at 40 uM GlcN6P; higher = faster cleavage; RNA array
How it was run: as §1

glucosamine-6-phosphate [4] = variants of: B1; experiment: self-cleavage kobs at 640 uM GlcN6P; higher = faster cleavage; RNA array
How it was run: as §1

glucosamine-6-phosphate [5] = variants of: B1; experiment: self-cleavage kobs at 2500 uM GlcN6P; higher = faster cleavage; RNA array
How it was run: as §1

glucosamine-6-phosphate [6] = variants of: B1; experiment: self-cleavage kobs at 10000 uM GlcN6P; higher = faster cleavage; RNA array
How it was run: as §1

glucosamine-6-phosphate [7] = variants of: B1; experiment: self-cleavage kobs at 160 uM GlcN6P; higher = faster cleavage; RNA array
How it was run: as §1

Variant	kcat (glucosamine-6-phosphate [1]) [s⁻¹]	KM (glucosamine-6-phosphate [2]) [µM]	self-cleavage kobs at 40 uM GlcN6P (glucosamine-6-phosphate [3]) [s⁻¹]	self-cleavage kobs at 640 uM GlcN6P (glucosamine-6-phosphate [4]) [s⁻¹]	self-cleavage kobs at 2500 uM GlcN6P (glucosamine-6-phosphate [5]) [s⁻¹]	self-cleavage kobs at 10000 uM GlcN6P (glucosamine-6-phosphate [6]) [s⁻¹]	self-cleavage kobs at 160 uM GlcN6P (glucosamine-6-phosphate [7]) [s⁻¹]
U49G C71U	0.00102 ± 0.00022	2160 ± 970	3.07e-05 ± 9.2e-06	0.000246 ± 2.9e-05	0.00041 ± 6.9e-05	0.000902 ± 7.8e-05	–
U49C C71A	< 1e-05	–	< 1e-05	< 1e-05	–	–	–
A48C U69C	7.16e-05 ± 1.1e-05	–	< 1e-05	6.02e-05 ± 1.9e-05	9.22e-05 ± 2.4e-05	6.44e-05 ± 1.5e-05	< 1e-05
U46G G66U C67U	0.000249 ± 2.4e-05	804 ± 230	–	0.000128 ± 3e-05	0.000172 ± 6.1e-05	0.00023 ± 3.9e-05	–
U49A C61U	< 1e-05	–	–	–	–	–	–
U47G A64G	0.0089 ± 0.0018	1570 ± 460	0.000278 ± 4.5e-05	0.00203 ± 0.00049	0.00542 ± 0.0013	0.00828 ± 0.0015	0.000742 ± 0.00017
U47G A64U	2.76e-05 ± 3.5e-06	–	–	–	–	–	–
C50A G66C C67U	1.02e-05 ± 2.9e-06	–	–	–	–	–	–
U47G C58U	8.14e-05 ± 1.6e-05	–	–	–	3.07e-05 ± 1.2e-05	6.32e-05 ± 8.6e-06	–
U46G C58A	0.000164 ± 4e-05	–	< 1e-05	–	3.08e-05 ± 1.2e-05	8.21e-05 ± 1.1e-05	–
U46G C58G	2.68e-05 ± 1.4e-06	892 ± 260	–	–	–	2.44e-05 ± 1.2e-05	< 1e-05
U46G C67G	0.000343 ± 3.5e-05	1360 ± 310	2.99e-05 ± 1.3e-05	0.000112 ± 1.1e-05	0.000241 ± 2.8e-05	0.000295 ± 2.3e-05	2.86e-05 ± 8.4e-06
U46G C67U	0.00338 ± 0.0012	1200 ± 590	0.000125 ± 1.7e-05	0.00143 ± 0.00015	0.00176 ± 0.00028	0.00457 ± 0.00079	0.000317 ± 5.3e-05
C50A G62U	< 1e-05	–	< 1e-05	–	–	< 1e-05	–
U47A U69A	9.51e-05 ± 1.3e-05	–	–	8.57e-05 ± 2.5e-05	0.000188 ± 8e-05	8.87e-05 ± 2e-05	0.00011 ± 4.9e-05
U47A A52G	0.00213 ± 0.00047	5080 ± 1600	3.28e-05 ± 1.5e-05	0.000221 ± 3.3e-05	0.000661 ± 9.9e-05	0.00146 ± 0.0002	8.42e-05 ± 1.9e-05

Variant	kcat (glucosamine-6-phosphate [1]) [s⁻¹]	KM (glucosamine-6-phosphate [2]) [µM]	self-cleavage kobs at 40 uM GlcN6P (glucosamine-6-phosphate [3]) [s⁻¹]	self-cleavage kobs at 640 uM GlcN6P (glucosamine-6-phosphate [4]) [s⁻¹]	self-cleavage kobs at 2500 uM GlcN6P (glucosamine-6-phosphate [5]) [s⁻¹]	self-cleavage kobs at 10000 uM GlcN6P (glucosamine-6-phosphate [6]) [s⁻¹]	self-cleavage kobs at 160 uM GlcN6P (glucosamine-6-phosphate [7]) [s⁻¹]
C50A G59A	< 1e-05	–	–	< 1e-05	–	–	–
C50G U57C	4.02e-05 ± 1.6e-05	–	–	–	5.18e-05 ± 1.7e-05	–	4.88e-05 ± 2e-05
U47G C67G	0.000689 ± 0.00022	–	7.66e-05 ± 1.4e-05	0.000248 ± 2.3e-05	0.000429 ± 5.2e-05	0.000816 ± 9.6e-05	0.000105 ± 1.9e-05
C50U C68A	3.06e-05 ± 9.8e-06	–	–	4.9e-05 ± 1.9e-05	3.28e-05 ± 1.5e-05	–	–
U46C C71U	0.00342 ± 0.00056	1240 ± 290	0.000102 ± 1.5e-05	0.00126 ± 0.00019	0.00309 ± 0.00044	0.00266 ± 0.00038	0.000375 ± 5.8e-05
U46G U54A	0.00945 ± 0.0015	2450 ± 490	0.000165 ± 2.1e-05	0.00207 ± 0.00034	0.00434 ± 0.0016	0.00766 ± 0.0012	0.000444 ± 0.00011
C50G G62C	2.62e-05 ± 7.9e-06	–	–	–	–	–	–
U46C U49G	0.000109 ± 8.3e-06	817 ± 220	–	4.66e-05 ± 1.2e-05	8.96e-05 ± 1.6e-05	9.78e-05 ± 1.5e-05	–
U47C U56C A64G	6.84e-05 ± 1.6e-05	–	–	6.85e-05 ± 1.9e-05	5.93e-05 ± 1.5e-05	–	–
U47G U55G	0.00601 ± 0.0021	–	0.000247 ± 4.9e-05	0.00195 ± 0.00043	0.00249 ± 0.001	0.00706 ± 0.0012	–
U47G U55C	0.00713 ± 0.0025	1030 ± 470	0.000233 ± 4.3e-05	0.00372 ± 0.00087	0.00386 ± 0.0012	0.00759 ± 0.0024	0.00147 ± 0.00034
U46G U65A C71U	0.00287 ± 0.00028	2140 ± 340	4.68e-05 ± 1.3e-05	0.000735 ± 0.00016	0.00173 ± 0.00035	0.00224 ± 0.00038	0.000191 ± 6.8e-05
U46G A52U	0.000165 ± 1.2e-05	–	< 1e-05	–	2.87e-05 ± 1.3e-05	7.51e-05 ± 2.1e-05	< 1e-05
C50A U54G	2.18e-05 ± 1.9e-06	–	–	–	–	–	–
A48U U65A	5.33e-05 ± 4.6e-06	–	–	–	–	–	< 1e-05
U46G U47G	0.00226 ± 0.00039	1530 ± 410	6.82e-05 ± 2e-05	0.000551 ± 0.00016	0.00191 ± 0.00051	0.00188 ± 0.00039	0.000208 ± 5.4e-05
